How the values were obtained:
[1] = target: trimeric Spike, full P.1 variant (SARS-CoV-2) (UniProt P0DTC2); assay: Luminex bead-based binding assay
[2] = target: trimeric Spike K417N/E484K/N501Y (SARS-CoV-2) (UniProt P0DTC2); assay: Luminex bead-based binding assay

## REGN10933 (antibody)
[1]
  fold reduced binding affinity: 195 fold
[2]
  fold reduced binding affinity: 60 fold
